# Earlier results as cited in PMC8820802.
# Tested on: streptavidin
# Conditions: 50 mM Tris-HCl pH 7.6, 10 mM MgCl2, 100 mM KCl, 10% glycerol, 0.05% NP-40, protease inhibitor; HEK293T lysate on streptavidin-Sepharose, 16 h, 4 C
row,Substance,Kd [µM]
1,S1 aptamer,0.079
2,S1m aptamer,0.029
